From patent publication US20190241662A1 (ADAGENE, published 2019)

What was measured:
[1] = target: T1, human TNFR1 on HEK293F cells (human, UniProt P19438 30-455); assay: flow cytometry, transfected HEK293F cells [Cont.]
T1 construct: whole, on cells; also called CD120a
T1 sequence (looked up): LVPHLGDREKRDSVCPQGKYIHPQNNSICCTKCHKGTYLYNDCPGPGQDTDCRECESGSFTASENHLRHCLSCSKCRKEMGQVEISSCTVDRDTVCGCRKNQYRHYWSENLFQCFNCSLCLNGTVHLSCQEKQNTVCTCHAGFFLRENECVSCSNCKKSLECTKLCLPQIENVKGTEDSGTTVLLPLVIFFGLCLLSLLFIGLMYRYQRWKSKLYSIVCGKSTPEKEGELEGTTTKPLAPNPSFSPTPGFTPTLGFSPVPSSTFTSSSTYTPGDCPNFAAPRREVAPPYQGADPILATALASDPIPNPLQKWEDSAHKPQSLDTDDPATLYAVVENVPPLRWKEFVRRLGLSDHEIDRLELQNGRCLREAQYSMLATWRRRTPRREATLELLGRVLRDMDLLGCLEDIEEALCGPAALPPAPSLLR
Protocol: (§1) Antibody selectivity was next examined. Human CTLA4, PD1, LAG3, Tim3, B7H3, CD95, TNFR1, OX40, CD40, PD-L1, BLTA, VISTA, PDL2, ICOS and B7H4 were transiently overexpressed on the surface of HEK293F cells. Transfected cells were washed in pre-chilled 1×PBSA buffer (1.76 mM KH2PO4, 10.14 mM Na2HPO4.12H2O, 2.68 mM KCl, 136.89 mM NaCl and 1% BSA), then incubated with 100 nM test antibodies for 1 hour on ice. Cells were washed once with staining buffer, and Alexa Fluor® 647 conjugated mouse anti-human FC antibodies were added and incubated for 30 minutes on ice, protected from light. Samples were washed once with staining buffer prior to analysis by flow cytometry.

[2] = target: T2, human OX40 on HEK293F cells (human, UniProt P43489 29-277); assay: flow cytometry, transfected HEK293F cells [Cont.]
T2 construct: whole, on cells
T2 sequence (looked up): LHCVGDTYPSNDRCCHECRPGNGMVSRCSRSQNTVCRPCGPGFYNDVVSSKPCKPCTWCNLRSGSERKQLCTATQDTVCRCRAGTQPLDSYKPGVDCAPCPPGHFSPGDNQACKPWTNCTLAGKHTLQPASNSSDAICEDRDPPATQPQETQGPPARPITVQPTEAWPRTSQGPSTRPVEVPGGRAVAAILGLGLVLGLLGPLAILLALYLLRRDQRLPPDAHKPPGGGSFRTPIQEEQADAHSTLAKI
Protocol: as §1

[3] = target: T3, human CD95 on HEK293F cells (human, UniProt P25445 26-335); assay: flow cytometry, transfected HEK293F cells [Cont.]
T3 construct: whole, on cells
T3 sequence (looked up): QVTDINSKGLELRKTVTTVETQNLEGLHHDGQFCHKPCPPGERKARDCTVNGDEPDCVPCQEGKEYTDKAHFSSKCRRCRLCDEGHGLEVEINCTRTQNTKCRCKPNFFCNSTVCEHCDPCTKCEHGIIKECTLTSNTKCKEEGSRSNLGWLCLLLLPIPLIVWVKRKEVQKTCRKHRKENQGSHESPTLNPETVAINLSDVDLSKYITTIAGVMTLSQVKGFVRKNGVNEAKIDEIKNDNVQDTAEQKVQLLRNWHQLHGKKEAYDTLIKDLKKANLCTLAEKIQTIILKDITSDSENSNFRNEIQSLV
Protocol: as §1

[4] = target: T4, human LAG3 on HEK293F cells (human, UniProt P18627 23-525); assay: flow cytometry, transfected HEK293F cells [Cont.]
T4 construct: whole, on cells
T4 sequence (looked up): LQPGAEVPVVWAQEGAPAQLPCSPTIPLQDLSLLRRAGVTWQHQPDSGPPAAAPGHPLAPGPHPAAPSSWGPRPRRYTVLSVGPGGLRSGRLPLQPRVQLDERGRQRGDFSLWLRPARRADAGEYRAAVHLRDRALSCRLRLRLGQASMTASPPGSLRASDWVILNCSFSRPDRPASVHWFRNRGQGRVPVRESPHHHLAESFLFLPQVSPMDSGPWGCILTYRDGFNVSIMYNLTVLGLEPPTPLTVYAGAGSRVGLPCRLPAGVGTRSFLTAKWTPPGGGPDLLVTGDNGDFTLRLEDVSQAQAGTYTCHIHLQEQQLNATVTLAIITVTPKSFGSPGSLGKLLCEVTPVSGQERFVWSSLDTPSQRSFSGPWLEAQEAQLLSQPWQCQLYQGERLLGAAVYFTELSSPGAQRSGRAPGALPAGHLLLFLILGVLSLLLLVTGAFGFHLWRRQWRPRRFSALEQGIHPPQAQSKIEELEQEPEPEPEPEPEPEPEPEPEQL
Protocol: as §1

[5] = target: T5, human PD1 on HEK293F cells (human, UniProt Q15116 25-288); assay: flow cytometry, transfected HEK293F cells, 100 nM antibody
T5 construct: whole, on cells
Protocol: as §1

[6] = target: T2, human OX40 on HEK293F cells; assay: as above
Protocol: as §1

[7] = target: T4, human LAG3 on HEK293F cells; assay: as above
Protocol: as §1

[8] = target: T3, human CD95 on HEK293F cells; assay: as above
Protocol: as §1

[9] = target: T6, full-length human CTLA4 expressed on cells (human, UniProt P16410 36-223); assay: as above
T6 construct: whole, on cells; also called HEK293F/hCTLA-4 cells; HEK293F/hCTLA4 cells
T6 sequence (looked up): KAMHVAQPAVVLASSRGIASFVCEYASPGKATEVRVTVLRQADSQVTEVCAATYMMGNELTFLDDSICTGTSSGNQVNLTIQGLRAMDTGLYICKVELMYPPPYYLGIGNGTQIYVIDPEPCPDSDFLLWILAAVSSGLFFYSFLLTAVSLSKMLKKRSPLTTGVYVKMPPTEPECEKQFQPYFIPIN
Protocol: as §1

T5 sequence (Q15116 25-288): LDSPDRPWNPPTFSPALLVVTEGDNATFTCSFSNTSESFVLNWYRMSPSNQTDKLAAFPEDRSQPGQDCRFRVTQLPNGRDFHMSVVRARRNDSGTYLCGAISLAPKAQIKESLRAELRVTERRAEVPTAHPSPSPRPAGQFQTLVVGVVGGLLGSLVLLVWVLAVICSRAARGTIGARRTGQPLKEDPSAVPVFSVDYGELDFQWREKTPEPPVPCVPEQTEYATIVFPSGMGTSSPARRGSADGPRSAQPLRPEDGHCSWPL

B1: TY21591 (antibody, V domains shown)
VH: EVQLVESGGGLVQPGGSLRLSCAASGFSLSTGGVAVSWIRQAPGKGLEWIGEIYHSGSTYYSPSLKSRVTISRDNSKNTLYLQLNSLRAEDTAVYYCARRIATATYFDYWGQGTLVTVSS
VL: DIQLTQSPSSLSASVGDRVTITCRASQTVFSRYLAWYQQKPGKAPKLLIYDASNRATGIPSRFSGSGSGTDFTLTISSLQPEDFATYYCQQSYYWPPWTFGQGTKVEIK
notes: human IgG1 (hIgG1) from Fab hit B15756
binding result [1]: no binding (tested: 100 nM)
binding result [2]: no binding (tested: 100 nM)
binding result [3]: no binding (tested: 100 nM)

B2: TY21687 (antibody, V domains shown)
VH: EVQLVESGGGLVQPGGSLRLSCAASGFTFSGYAIHWVRQAPGKGLEWIGIISPSGGGTKYAQKFQGRVTISRDNSKNTLYLQLNSLRAEDTAVYYCARHPFAYWGQGTLVTVSS
VL: DIQLTQSPSSLSASVGDRVTITCRASQSVDFYGISFLDWYQQKPGKAPKLLIYDASNRATGIPSRFSGSGSGTDFTLTISSLQPEDFATYYCQQYVSSPPEYTFGQGTKVEIK
notes: human IgG1 (hIgG1) from Fab hit B15700
binding result [4]: no binding (tested: 100 nM)

B3: TY21585 (antibody, V domains shown)
VH: EVQLVESGGGLVQPGGSLRLSCAASGFTFSDYAIHWVRQAPGKGLEWIGIISPSSGSTNYAQKFQGRVTISRDNSKNTLYLQLNSLRAEDTAVYYCARDIHSGSSGYYYGFDVWGQGTLVTVSS
VL: DIQLTQSPSSLSASVGDRVTITCRASESVDFFGISFLAWYQQKPGKAPKLLIYDASNRATGIPSRFSGSGSGTDFTLTISSLQPEDFATYYCQHYTSSPPVYTFGQGTKVEIK
notes: human IgG1 (hIgG1) from Fab hit B15709
% of cells in upper right quadrant (Q2) [5]: 1.33%
% of cells in upper right quadrant (Q2) [6]: 0.43
Mean [6]: 10500
% of cells in upper right quadrant (Q2) [7]: 0.66%
% of cells in upper right quadrant (Q2) [8]: 0.23
Mean [8]: 6720
% of cells in upper right quadrant (Q2) [9]: 30.4%
